Measured values from patent US20250270273A1 (NEKTAR THERAPEUTICS, published 2025).

T1: IFN-γ receptor (IFNGR; IFNGR1 and IFNGR2) on human cells (human) (UniProt P15260)
T1 sequence (looked up) 1: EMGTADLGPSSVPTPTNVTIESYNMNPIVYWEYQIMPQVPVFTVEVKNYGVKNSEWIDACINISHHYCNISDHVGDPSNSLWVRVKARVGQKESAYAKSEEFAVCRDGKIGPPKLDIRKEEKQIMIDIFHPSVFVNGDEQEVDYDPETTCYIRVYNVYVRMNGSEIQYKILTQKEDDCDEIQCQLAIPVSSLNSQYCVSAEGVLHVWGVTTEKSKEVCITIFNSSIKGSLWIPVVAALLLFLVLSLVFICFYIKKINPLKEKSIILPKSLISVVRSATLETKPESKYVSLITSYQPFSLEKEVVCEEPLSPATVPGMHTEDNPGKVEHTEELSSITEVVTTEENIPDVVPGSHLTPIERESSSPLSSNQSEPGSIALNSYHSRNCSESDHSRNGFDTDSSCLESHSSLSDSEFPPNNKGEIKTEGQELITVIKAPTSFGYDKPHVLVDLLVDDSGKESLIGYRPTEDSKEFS
T1 sequence (looked up) 2: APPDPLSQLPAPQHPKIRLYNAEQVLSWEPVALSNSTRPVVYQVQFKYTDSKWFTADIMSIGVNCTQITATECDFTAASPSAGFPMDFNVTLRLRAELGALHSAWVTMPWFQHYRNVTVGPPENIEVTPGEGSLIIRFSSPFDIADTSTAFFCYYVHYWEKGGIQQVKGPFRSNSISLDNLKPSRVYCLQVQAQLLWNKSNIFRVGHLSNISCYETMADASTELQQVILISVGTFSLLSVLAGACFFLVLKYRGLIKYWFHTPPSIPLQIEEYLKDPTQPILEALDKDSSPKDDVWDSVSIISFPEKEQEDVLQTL

T2: IFN-γ receptor (IFNGR; IFNGR1 and IFNGR2) on human cells (human, UniProt P15260 18-489; P38484 22-337)
T2 sequence (looked up) 1: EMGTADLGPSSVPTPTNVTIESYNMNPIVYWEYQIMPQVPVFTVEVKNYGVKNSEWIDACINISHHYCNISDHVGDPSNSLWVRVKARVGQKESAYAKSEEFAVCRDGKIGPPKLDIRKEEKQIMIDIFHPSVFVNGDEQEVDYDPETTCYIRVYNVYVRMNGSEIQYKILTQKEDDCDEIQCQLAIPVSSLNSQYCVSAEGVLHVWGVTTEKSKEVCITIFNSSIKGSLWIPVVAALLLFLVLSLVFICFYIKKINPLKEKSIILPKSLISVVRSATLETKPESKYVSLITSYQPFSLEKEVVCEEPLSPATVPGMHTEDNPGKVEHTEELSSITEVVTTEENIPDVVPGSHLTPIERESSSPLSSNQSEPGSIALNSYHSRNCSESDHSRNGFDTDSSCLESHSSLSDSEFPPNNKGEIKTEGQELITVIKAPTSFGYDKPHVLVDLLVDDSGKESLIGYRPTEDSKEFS
T2 sequence (looked up) 2: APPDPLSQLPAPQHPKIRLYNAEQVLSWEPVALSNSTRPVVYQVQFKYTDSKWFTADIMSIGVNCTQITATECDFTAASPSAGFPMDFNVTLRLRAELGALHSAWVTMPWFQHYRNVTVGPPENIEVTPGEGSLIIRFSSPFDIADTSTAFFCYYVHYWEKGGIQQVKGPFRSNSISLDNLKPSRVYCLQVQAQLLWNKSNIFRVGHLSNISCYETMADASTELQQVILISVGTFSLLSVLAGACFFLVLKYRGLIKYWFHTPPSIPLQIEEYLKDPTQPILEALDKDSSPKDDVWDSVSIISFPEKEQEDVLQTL

T3: IFNγR1 fused to the constant region of the antibody IgG1 (UniProt P15260 18-245, limits assumed)
T3 construct: also called IFNGR1; Interferon gamma receptor 1 fused to the Fc region; not shown: constant region (Fc) of IgG1, captured on the chip by an anti-human IgG antibody
T3 sequence (looked up): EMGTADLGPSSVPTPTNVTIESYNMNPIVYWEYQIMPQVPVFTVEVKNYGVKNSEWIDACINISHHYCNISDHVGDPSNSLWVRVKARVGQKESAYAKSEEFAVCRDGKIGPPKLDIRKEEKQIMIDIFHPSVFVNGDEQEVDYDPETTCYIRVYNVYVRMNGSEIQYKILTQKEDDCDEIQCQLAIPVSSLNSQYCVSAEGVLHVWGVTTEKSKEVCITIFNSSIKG


Tests used:
[1] = target: T1, IFN-γ receptor (IFNGR; IFNGR1 and IFNGR2) on human cells (human); assay: cell-based or functional assay
[2] = target: T2, IFN-γ receptor (IFNGR; IFNGR1 and …); assay: cell-based or functional assay
[3] = target: T2, IFN-γ receptor (IFNGR; IFNGR1 and …); assay: cell-based or functional assay; remark: listed apart in the source
[4] = target: T3, IFNγR1 fused to the constant region of …; assay: SPR (Biacore, CM5 chip), IFNγR1-IgG1 Fc captured by anti-human IgG, analyte injected
Procedure: Briefly, the surface of a BAcore™ CM5 sensor chip was coated with anti-human IgG antibody comprising IFNγR1 fused to the constant region of the antibody IgG₁.
Each of the IFN-γ-b protein, the M135C, S98C, and S66C cysteine muteins, and Compounds 1, 2, and 3 were separately injected onto the sensor chip which was coated with IFNγR1. The affinities were measured by determining the kinetic on-rate (kₒₙ) and the kinetic off-rate (koff) rates separately, and the ratio between kₒₙ and koff was used to calculate the Kd values with the results shown in Table 9.

[5] = target: T3, IFNγR1 fused to the constant region of …; assay: SPR (Biacore, CM5 chip), IFNγR1-IgG1 Fc captured by anti-human IgG

Molecule | EC50 (ng/mL)-% pSTAT1, CD14+CD16+ (Intermediate) monocytes of human PBMCs [2] | EC50 (ng/mL)-% pSTAT1, CD14+CD16- (Classical) monocytes of human PBMCs [2] | EC50 (ng/mL)-% pSTAT1, CD14loCD16hi (Non-classical) monocytes of human PBMCs [2] | EC50 (ng/mL)-MFI of pSTAT1, Classical monocytes of human PBMCs [2] | EC50 (ng/mL)-MFI of pSTAT1, Intermediate monocytes of human PBMCs [2] | EC50 (ng/mL)-MFI of pSTAT1, Non-classical monocytes of human PBMCs [2] | EC50 in HT-29 cells, MHCI [3] | EC50 in HT-29 cells, MHCII [3] | EC50 in HT-29 cells, PD-L1 [3] | EC50 in HT-29 cells, pSTAT1 [3] | Kd [4] | koff [4] | kon [4] | also measured
Compound 6, mono-mPEG2-MAL-20K-rhIFN-γ-1b-N98C (from UniProt P01579 24-162) (ligand) | – | – | – | – | – | – | – | – | – | – | – | – | – | EC50 in HT-29 cells, MHCI [1]: 0.047 ng/mL; EC50 in HT-29 cells, MHCII [1]: 0.86 ng/mL; EC50 in HT-29 cells, PD-L1 [1]: 1.3 ng/mL; EC50 in HT-29 cells, pSTAT1 [1]: 1.2 ng/mL
Compound 5, mono-mPEG2-MAL-20K-rhIFN-γ-1b-S66C (from UniProt P01579 24-162) (ligand) | – | – | – | – | – | – | – | – | – | – | – | – | – | EC50 in HT-29 cells, MHCI [1]: 0.023 ng/mL; EC50 in HT-29 cells, MHCII [1]: 0.27 ng/mL; EC50 in HT-29 cells, PD-L1 [1]: 0.37 ng/mL; EC50 in HT-29 cells, pSTAT1 [1]: 1.3 ng/mL
Compound 7, ring-opened mono-mPEG2-MAL-20K-rhIFN-γ-1b-M135C (from UniProt P01579 24-162) (ligand) | – | – | – | – | – | – | – | – | – | – | – | – | – | EC50 in HT-29 cells, MHCI (Compound 7 (1)) [1]: 5.3 ng/mL; EC50 in HT-29 cells, MHCII (Compound 7 (1)) [1]: 150 ng/mL; EC50 in HT-29 cells, PD-L1 (Compound 7 (1)) [1]: 190 ng/mL; EC50 in HT-29 cells, pSTAT1 (Compound 7 (2)) [1]: 969 ng/mL
Compound 4, mono-mPEG2-MAL-40K-rhIFN-γ-1b-M135C (from UniProt P01579 24-162) (ligand) | – | – | – | – | – | – | – | – | – | – | – | – | – | EC50 (ng/mL)-% pSTAT1, CD14+CD16+ (Intermediate) monocytes of human PBMCs [1]: 10.1 ng/mL; EC50 (ng/mL)-% pSTAT1, CD14+CD16- (Classical) monocytes of human PBMCs [1]: 32.6 ng/mL; EC50 (ng/mL)-% pSTAT1, CD14loCD16hi (Non-classical) monocytes of human PBMCs [1]: 11.7 ng/mL; EC50 (ng/mL)-MFI of pSTAT1, Classical monocytes of human PBMCs [1]: 152 ng/mL; EC50 (ng/mL)-MFI of pSTAT1, Intermediate monocytes of human PBMCs [1]: 84.2 ng/mL; EC50 (ng/mL)-MFI of pSTAT1, Non-classical monocytes of human PBMCs [1]: 97.5 ng/mL; EC50 in HT-29 cells, MHCI [1]: 0.3 ng/mL; EC50 in HT-29 cells, MHCII [1]: 3.1 ng/mL; EC50 in HT-29 cells, PD-L1 [1]: 3.6 ng/mL; EC50 in HT-29 cells, pSTAT1 [1]: 180 ng/mL
rhIFN-γ-1b (wild-type recombinant human interferon-γ-1b) (ligand, also called wt (rhIFN-γ-1b); WT IFN-γ-1b (Actimmune)) MQDPYVKEAENLKKYFNAGHSDVADNGTLFLGILKNWKEESDRKIMQSQIVSFYFKLFKNFKDDQSIQKSVETIKEDMNVKFFNSNKKKRDDFEKLTNYSVTDLNVQRKAIHELIQVMAELSPAAKTGKRKRSQMLFRGR | 0.015 ng/mL | 0.035 ng/mL | 0.018 ng/mL | 0.3 ng/mL | 0.24 ng/mL | 0.26 ng/mL | 0.079 ng/mL | 0.53 ng/mL | 0.69 ng/mL | 1 ng/mL | 65.5 pM | 0.000701 s⁻¹ | 1.07e+07 M⁻¹ s⁻¹ | –
Compound 1, mono-mPEG-MAL-10K-rhIFN-γ-1b-M135C (ligand, Cys135 thioether-linked to linear mPEG-maleimide of about 10,000 daltons (mPEG-MAL-10K), succinimide ring closed, also called mPEG-MAL-10K-M135C-IFN-γ; M135C 10K linear) MQDPYVKEAENLKKYFNAGHSDVADNGTLFLGILKNWKEESDRKIMQSQIVSFYFKLFKNFKDDQSIQKSVETIKEDMNVKFFNSNKKKRDDFEKLTNYSVTDLNVQRKAIHELIQVMAELSPAAKTGKRKRSQCLFRGR | 0.084 ng/mL | 0.222 ng/mL | 0.106 ng/mL | 2.16 ng/mL | 0.85 ng/mL | 0.99 ng/mL | 0.099 ng/mL | 0.83 ng/mL | 1.1 ng/mL | 11 ng/mL | 1420 pM | 0.00221 s⁻¹ | 1.61e+06 M⁻¹ s⁻¹ | fold decrease in affinity against IFN-γ-M135C [5]: ~10 fold
rhIFN-γ-1b-M135C cysteine mutein (ligand, also called IFN-γ-M135C; hIFN-γ M135C) MQDPYVKEAENLKKYFNAGHSDVADNGTLFLGILKNWKEESDRKIMQSQIVSFYFKLFKNFKDDQSIQKSVETIKEDMNVKFFNSNKKKRDDFEKLTNYSVTDLNVQRKAIHELIQVMAELSPAAKTGKRKRSQCLFRGR | – | – | – | – | – | – | – | – | – | 1.4 ng/mL | 123 pM | – | – | –
Compound 3, mono-mPEG2-ru-MAL-20K-rhIFN-γ-1b-M135C (ring closed) (ligand, Cys135 thioether-linked to branched mPEG2-maleimide of about 20,000 daltons (mPEG2-MAL-20K), succinimide ring closed, also called mPEG2-MAL-20K-M135C-IFN-γ; M135C 20K branched (RC)) MQDPYVKEAENLKKYFNAGHSDVADNGTLFLGILKNWKEESDRKIMQSQIVSFYFKLFKNFKDDQSIQKSVETIKEDMNVKFFNSNKKKRDDFEKLTNYSVTDLNVQRKAIHELIQVMAELSPAAKTGKRKRSQCLFRGR | 4.38 ng/mL | 14 ng/mL | 4.84 ng/mL | 64.2 ng/mL | 32.7 ng/mL | 35 ng/mL | 0.17 ng/mL | 1.8 ng/mL | 2.2 ng/mL | 89 ng/mL | 4900 pM | 0.00157 s⁻¹ | 321000 M⁻¹ s⁻¹ | –
rhIFN-γ-1b-S66C cysteine mutein (ligand, also called IFN-γ-S66C; hIFN-γ S66C) MQDPYVKEAENLKKYFNAGHSDVADNGTLFLGILKNWKEESDRKIMQSQIVSFYFKLFKNFKDDQCIQKSVETIKEDMNVKFFNSNKKKRDDFEKLTNYSVTDLNVQRKAIHELIQVMAELSPAAKTGKRKRSQMLFRGR | – | – | – | – | – | – | – | – | – | 1.5 ng/mL | 534 pM | 0.00137 s⁻¹ | 2.57e+06 M⁻¹ s⁻¹ | –
rhIFN-γ-1b-N98C cysteine mutein (ligand) MQDPYVKEAENLKKYFNAGHSDVADNGTLFLGILKNWKEESDRKIMQSQIVSFYFKLFKNFKDDQSIQKSVETIKEDMNVKFFNSNKKKRDDFEKLTCYSVTDLNVQRKAIHELIQVMAELSPAAKTGKRKRSQMLFRGR | – | – | – | – | – | – | – | – | – | 1.7 ng/mL | – | – | – | –
Compound 2, mono-mPEG-MAL-20K-rhIFN-γ-1b-M135C (ligand, Cys135 thioether-linked to linear mPEG-maleimide of about 20,000 daltons (mPEG-MAL-20K), succinimide ring closed, also called mPEG-MAL-20K-M135C-IFN-γ; M135C 20K linear) MQDPYVKEAENLKKYFNAGHSDVADNGTLFLGILKNWKEESDRKIMQSQIVSFYFKLFKNFKDDQSIQKSVETIKEDMNVKFFNSNKKKRDDFEKLTNYSVTDLNVQRKAIHELIQVMAELSPAAKTGKRKRSQCLFRGR | 0.179 ng/mL | 1.45 ng/mL | 0.367 ng/mL | 7.62 ng/mL | 4.28 ng/mL | 4.57 ng/mL | 0.076 ng/mL | 0.7 ng/mL | 1.2 ng/mL | 14 ng/mL | 1880 pM | 0.00106 s⁻¹ | 637000 M⁻¹ s⁻¹ | –
